# Target: grass pollen allergic patients' IgE antibodies
# Assay: ELISA competition; sera of 20 patients preadsorbed with 10 ug/ml rPhl p 6; competitor: plate-bound rPhl p 6
binder,measurement,value
"recombinant Phl p 6 (protein, timothy grass, UniProt P43215 23-132, looked up) GKATTEEQKLIEDVNASFRAAMATTANVPPADKYKTFEAAFTVSSKRNLADAVSKAPQLVPKLDEVYNAAYNAADHAAPEDKYEAFVLHFSEALRIIAGTPEVHAVKPGA",% inhibition of IgE binding,80%
